From paper PMC6335422 (Nature Communications, 2019)
Primed or numbered codes have the meaning given here. Where no end group is shown, it is not given here. SUMO″ = SUMO fusion tag (N-terminal); SUMO = SUMO tag, N-terminal

T1: Erh1 (Erh1wt) (Schizosaccharomyces pombe, UniProt G2TRN4)
T1 construct: A region of Erh1 (residues 1–104) was amplified by PCR; made in house; host or cells: Escherichia coli BL21 (Gold)
T1 sequence (G2TRN4 1-104): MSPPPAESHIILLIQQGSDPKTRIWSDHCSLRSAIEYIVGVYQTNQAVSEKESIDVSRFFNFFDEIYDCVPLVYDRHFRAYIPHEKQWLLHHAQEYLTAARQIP

T2: Erh1 (residues 1-104), wild type (S. pombe, UniProt G2TRN4 1-104)
T2 construct: Erh1, S. pombe, residues 1-104, amplified from the S. pombe genome, in a modified pET28a vector without thrombin site (p28a); also called Erh1wt; Enhancer of rudimentary homolog 1; source: E. coli BL21 (Gold), purified (Ni-chelating resin, size-exclusion chromatography)
T2 sequence (looked up): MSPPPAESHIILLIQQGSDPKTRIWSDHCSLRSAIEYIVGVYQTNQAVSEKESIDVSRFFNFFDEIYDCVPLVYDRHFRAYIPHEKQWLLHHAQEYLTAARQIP


Key:
Erh1 (Erh1wt) = biological target: T1, Erh1 (Erh1wt); assay: Isothermal titration calorimetry (ITC), SUMO-tagged Mmi1 peptides titrated into wild-type Erh1; format: binding, S. pombe; conditions: for -TΔS / ΔH (binding enthalpy): Erh1wt; for ΔH (binding enthalpy): single-site model; for binding / affinity for Erh1 (in words): ITC (Supplementary Table 1; Fig. 1d, f), relative to Mmi1^95–122
Protocol: The titration protocol consisted of a single initial injection of 1 µl, followed by 19 injections of 2 µl SUMO-tagged Mmi1 peptides into the sample cell containing Erh1 protein. Thermodynamic data were analyzed with a single-site binding model using MicroCal PEAQ-ITC Analysis Software provided by the manufacturer.

[1] = biological target: T2, Erh1 (residues 1-104), wild type; assay: ITC; SUMO-tagged Mmi1 peptides titrated into Erh1 in the sample cell; MicroCal iTC200, 293 K; 20 mM Tris-HCl pH 7.5, 150 mM NaCl; single-site binding model; conditions: both partners purified
Erh1 = assay: GST pull-down of Erh1 with GST-tagged Mmi1 fragments, Coomassie; format: binding, S. pombe; conditions: GST-Mmi1 fusion incubated with Erh1, glutathione-agarose, SDS-PAGE
From the text: Fig. 1 Mmi1 interacts with Erh1 in a 2:2 stoichiometry. a Shown is a schematic representation of the domain architecture of Mmi1. The disorder score from DISOPRED3 Server[62] and the conservation score are shown below. The conservation score is generated by a Protein Residue Conservation Prediction Server[63] from the sequence alignment of Mmi1 orthologues from S. pombe, S. cryophilus, S. octosporus, and S. japonicus. b–d Interactions of GST tagged Mmi1 peptides (GST-Mmi1) with Erh1 visualized by Coomassie blue staining. The indicated GST-Mmi1 fusion proteins or GST alone were incubated with Erh1. The complexes were collected with glutathione-agarose resin and bound proteins were eluted and then subjected to SDS-PAGE. GST or GST-Mmi1 fusion proteins without Erh1 are shown as a negative control. Source data are provided as a Source Data file. e The raw ITC titration data of Erh1 with SUMO tagged Mmi1^95–122 and its fitting curve are shown. KD dissociation constant, DP differential power, N binding stoichiometry, ΔH binding enthalpy. f ITC fitting curves of Erh1 using SUMO tagged Mmi1^95–122 (magenta), Mmi1^106–122 (blue) and Mmi1^95–111 (green) are shown. g Size-exclusion analysis of Erh1 (magenta) and Erh1-Mmi1^95–122 (blue). Marker sizes are 62.9 KDa (Albumin), 46.7 KDa (Ovalbumin), 20.3 KDa (Chymotrypsinogen), 14.6 KDa (Ribonuclease A). Also shown are theoretical monomer sizes (kDa) of Erh1 protein and Mmi1^95–122 peptide TEXT PRINTED IN THE PICTURE: (e) Mmi1^95–122 - Erh1: KD (μM) 0.83±0.19; N (sites) 0.90±0.01; ΔH (kJ per mol) −106±3.02 | (f) Mmi1^95–122: Erh1 KD (μM): 0.83±0.19 | (f) Mmi1^106–122: Erh1 KD (μM): 9.94±1.19 | (f) Mmi1^95–111: Erh1 KD (μM): no binding | (g) Erh1: 13.2 kDa | (g) Mmi1^95–122: 3.5 kDa
A region of Erh1 (residues 1–104) was amplified by PCR from the S. pombe genome and cloned into a modified pET28a (Novagen) vector without a thrombin protease cleavage site (p28a). GST-Mmi1^YTH was sub-cloned from a Mmi1^YTH-p28a construct to a modified PGex-4T1 vector with a TEV protease cleavage site (Tev4T1). […]

[2] = ITC, 293 K, 20 mM Tris-HCl pH 7.5, 150 mM NaCl, SUMO-tagged Mmi1 peptide

Row | Molecule | -TΔS (Erh1 (Erh1wt); [2]) | ΔH (binding enthalpy) (Erh1 (Erh1wt); [2]) | Kd [1] | stoichiometry N [1] | also measured
1 | Mmi1Y106A: Mmi1 peptide mutant Y106A ({SUMO}-GKYDFSRHCTDAGHSYEWPYFRSLRRES; not fully specified) | 11.3 kJ per mol | -43.8±2.35 kJ per mol | – | – | –
2 | Mmi1Y110A: Mmi1 peptide mutant Y110A ({SUMO}-GKYDFSRHCTDYGHSAEWPYFRSLRRES; not fully specified) | 246 kJ per mol | -273±20.3 kJ per mol | – | – | –
3 | Mmi1^95–111: truncated Mmi1 peptide, residues 95–111 ({SUMO″}-GKYDFSRHCTDYGHSYE; not fully specified) | – | – | – | – | binding / affinity for Erh1 (in words) (Erh1 (Erh1wt)): did not bind at all; KD (dissociation constant) (Erh1 (Erh1wt); text and figures 1e, 1f, 3e, Erh1, ITC, 293 K, 20 mM Tris-HCl pH 7.5, 150 mM NaCl, SUMO-tagged Mmi1 peptide): no binding
4 | Mmi1S100A: Mmi1 peptide mutant S100A ({SUMO}-GKYDFARHCTDYGHSYEWPYFRSLRRES; not fully specified) | 6.04 kJ per mol | -36.0±3.16 kJ per mol | – | – | –
5 | Mmi1F99A: Mmi1 peptide mutant F99A ({SUMO}-GKYDASRHCTDYGHSYEWPYFRSLRRES; not fully specified) | 8.86 kJ per mol | -42.6±1.83 kJ per mol | – | – | binding / affinity for Erh1 (in words) (Erh1 (Erh1wt)): reduced affinities for Erh1
6 | Mmi1Y97A: Mmi1 peptide mutant Y97A ({SUMO}-GKADFSRHCTDYGHSYEWPYFRSLRRES; not fully specified) | 13.8 kJ per mol | -46.1±1.20 kJ per mol | – | – | binding / affinity for Erh1 (in words) (Erh1 (Erh1wt)): reduced affinities for Erh1
7 | Mmi1T104A: Mmi1 peptide mutant T104A ({SUMO}-GKYDFSRHCADYGHSYEWPYFRSLRRES; not fully specified) | 22.8 kJ per mol | -53.7±1.31 kJ per mol | – | – | –
8 | GST-tagged Mmi1^1–122: purified GST-tagged Mmi1 amino-terminal fragment, residues 1–122 (protein, UniProt O74958 1-122, looked up, fragment, GST tag) MSNTNFSTSRSSKSIPELPNLEALRSLWPPPSLNESGDTRSVWTTHTGEPVASSVLSTSGSNNFSSPLKRPAPESHDAPIGRRLMVDDPRLIKHGKYDFSRHCTDYGHSYEWPYFRSLRRES | – | – | – | – | interaction with Erh1 (GST pull-down) (Erh1): bound efficiently to Erh1
9 | GKADFSRHCTDYGHSYEWPYFRSLRRES (domain or fragment, S. pombe, UniProt O74958 95-122, looked up, also called Mmi1 Y97A; source: E. coli BL21 (Gold), purified (Ni-chelating resin, size-exclusion chromatography); not shown: SUMO, N-terminal, kept) [SUMO-tagged Mmi1 95-122 Y97A] | – | – | 1.75 ± 0.317 µM | 1.27 | –
10 | GKYDFSRHCTDYGHSAEWPYFRSLRRES (domain or fragment, S. pombe, UniProt O74958 95-122, looked up, also called Mmi1 Y110A; source: E. coli BL21 (Gold), purified (Ni-chelating resin, size-exclusion chromatography); not shown: SUMO, N-terminal, kept) [SUMO-tagged Mmi1 95-122 Y110A] | – | – | 15 ± 2.71 µM | 1 | –
11 | GKYDASRHCTDYGHSYEWPYFRSLRRES (domain or fragment, S. pombe, UniProt O74958 95-122, looked up, also called Mmi1 F99A; source: E. coli BL21 (Gold), purified (Ni-chelating resin, size-exclusion chromatography); not shown: SUMO, N-terminal, kept) [SUMO-tagged Mmi1 95-122 F99A] | – | – | 0.996 ± 0.355 µM | 1.38 | –
12 | GKYDFSRHCTDYGHSYEWPYARSLRRES (domain or fragment, S. pombe, UniProt O74958 95-122, looked up, also called Mmi1 F115A; source: E. coli BL21 (Gold), purified (Ni-chelating resin, size-exclusion chromatography); not shown: SUMO, N-terminal, kept) [SUMO-tagged Mmi1 95-122 F115A] | – | – | 1.8 ± 0.121 µM | 0.9 | –
13 | GKYDFSRHCADYGHSYEWPYFRSLRRES (domain or fragment, S. pombe, UniProt O74958 95-122, looked up, also called Mmi1 T104A; source: E. coli BL21 (Gold), purified (Ni-chelating resin, size-exclusion chromatography); not shown: SUMO, N-terminal, kept) [SUMO-tagged Mmi1 95-122 T104A] | – | – | 3.27 ± 0.425 µM | 1.45 | –
14 | GKYDFSRHCTDYGHSYEWPYFRSLARES (domain or fragment, S. pombe, UniProt O74958 95-122, looked up, also called Mmi1 R119A; source: E. coli BL21 (Gold), purified (Ni-chelating resin, size-exclusion chromatography); not shown: SUMO, N-terminal, kept) [SUMO-tagged Mmi1 95-122 R119A] | – | – | 1.22 ± 0.27 µM | 1.12 | –
15 | GKYDFSRHCTDYGHSYEWPAFRSLRRES (domain or fragment, S. pombe, UniProt O74958 95-122, looked up, also called Mmi1 Y114A; source: E. coli BL21 (Gold), purified (Ni-chelating resin, size-exclusion chromatography); not shown: SUMO, N-terminal, kept) [SUMO-tagged Mmi1 95-122 Y114A] | – | – | 3.52 ± 0.323 µM | 0.97 | –
16 | GKYDFSRHCTDAGHSYEWPYFRSLRRES (domain or fragment, S. pombe, UniProt O74958 95-122, looked up, also called Mmi1 Y106A; source: E. coli BL21 (Gold), purified (Ni-chelating resin, size-exclusion chromatography); not shown: SUMO, N-terminal, kept) [SUMO-tagged Mmi1 95-122 Y106A] | – | – | 1.63 ± 0.473 µM | 1.36 | –

Continued, in another order:

Row | -TΔS (Erh1 (Erh1wt); [2]) | ΔH (binding enthalpy) (Erh1 (Erh1wt); [2]) | Kd [1] | stoichiometry N [1] | Molecule | also measured
17 | 13.1 kJ per mol | -46.3±1.28 kJ per mol | – | – | Mmi1R119A: Mmi1 peptide mutant R119A ({SUMO}-GKYDFSRHCTDYGHSYEWPYFRSLARES; not fully specified) | binding / affinity for Erh1 (in words) (Erh1 (Erh1wt)): reduced
18 | 45.5 kJ per mol | -73.6±2.69 kJ per mol | – | – | Mmi1^106–122: further truncated Mmi1 fragment, residues 106–122 ({SUMO″}-YGHSYEWPYFRSLRRES; not fully specified) | binding / affinity for Erh1 (in words) (Erh1 (Erh1wt)): decreased binding to Erh1
19 | -21.2 kJ per mol | -9.97±2.43 kJ per mol | – | – | Mmi1H108A: Mmi1 peptide mutant H108A ({SUMO}-GKYDFSRHCTDYGASYEWPYFRSLRRES; not fully specified) | –
20 | 35.7 kJ per mol | -68.0±0.673 kJ per mol | – | – | Mmi1F115A: Mmi1 peptide mutant F115A ({SUMO}-GKYDFSRHCTDYGHSYEWPYARSLRRES; not fully specified) | binding / affinity for Erh1 (in words) (Erh1 (Erh1wt)): reduced affinities for Erh1
21 | 31.1 kJ per mol | -61.8±1.07 kJ per mol | – | – | Mmi1Y114A: Mmi1 peptide mutant Y114A ({SUMO}-GKYDFSRHCTDYGHSYEWPAFRSLRRES; not fully specified) | binding / affinity for Erh1 (in words) (Erh1 (Erh1wt)): reduced affinities for Erh1
22 | – | – | 9.94 ± 1.19 µM | 0.89 | YGHSYEWPYFRSLRRES (domain or fragment, S. pombe, UniProt O74958 106-122, looked up, source: E. coli BL21 (Gold), purified (Ni-chelating resin, size-exclusion chromatography); not shown: SUMO, N-terminal, kept) [SUMO-tagged Mmi1 106-122] | –
23 | – | – | 4.73 ± 1.62 µM | 1.36 | GKYDFARHCTDYGHSYEWPYFRSLRRES (domain or fragment, S. pombe, UniProt O74958 95-122, looked up, also called Mmi1 S100A; source: E. coli BL21 (Gold), purified (Ni-chelating resin, size-exclusion chromatography); not shown: SUMO, N-terminal, kept) [SUMO-tagged Mmi1 95-122 S100A] | –
24 | – | – | 2.78 ± 2.15 µM | 1.36 | GKYDFSRHCTDYGASYEWPYFRSLRRES (domain or fragment, S. pombe, UniProt O74958 95-122, looked up, also called Mmi1 H108A; source: E. coli BL21 (Gold), purified (Ni-chelating resin, size-exclusion chromatography); not shown: SUMO, N-terminal, kept) [SUMO-tagged Mmi1 95-122 H108A] | –
